Tested on: double knockout E. coli (EPSPS defective E. coli, EDCE)
Test: growth of EPSPS defective E. coli transformed by the EPSPS gene in M9 culture media containing different glyphosate concentrations
Assay type: cell-based, E. coli DH5α
From the text: A method for detecting the glyphosate resistance of the soybean EPSPS mutant G1 provided in Example 1 and the soybean EPSPS mutant G3 provided in Example 2 is as follows:
according to the sequence of the nucleic acid molecule provided in the example, synthesizing the encoding gene that encodes the soybean EPSPS mutant G1 or G3 using a chemical synthesis method, introducing enzyme sites (Pac1 and Sbf1) at two ends thereof, connecting to an expression vector (for example, a pADV5 vector, the structure of which is as shown in FIG. 15) that has undergone the same restriction enzyme digestion treatment under the action of ligase after restriction enzyme digestion, then transforming double knockout E. coli, picking positive colonies after verification, inoculating the positive colonies to M9 culture media containing different glyphosate concentrations for growth, and observing the growth situation of the E. coli.
The wild-type soybean EPSPS (with an amino acid sequence represented by SEQ ID NO: 2 and an encoding gene sequence represented by SEQ ID NO: 1) and the soybean EPSPS mutant G2 (with an amino acid sequence represented by SEQ ID NO: 6, and a corresponding encoding gene sequence represented by SEQ ID NO: 5) merely containing the mutation P114(101)S were taken as controls.
In the above, the M9 basal culture medium can be prepared by the following method:
5×M9 salt solution: 6.78 g of Na2HPO4, 3.0 g of KH2PO4, 0.5 g of NaCl, and 1.0 g of NH4Cl were weighed, added with ddH2O to 200 ml, and subjected to high-temperature and high-pressure sterilization treatment;
20% glucose: 20 g of glucose was weighed, added with 80 ml of ddH2O for dissolving, diluted to 100 ml, and subjected to filtration and sterilization treatment;
1.0 M MgSO4: 24.6 g of MgSO4-7H2O was weighed, dissolved with 80 ml of ddH2O, diluted to 100 ml, and subjected to sterilization treatment;
1.0 M CaCl2: 11.1 g of CaCl2 was weighed, dissolved with 80 ml of ddH2O, diluted to 100 ml, and subjected to sterilization treatment; and
1000 ml of the M9 basal culture media were prepared by adding ddH2O to 200 ml of 5×M9 salt solution, 20 ml of 20% glucose, 2 ml of 1.0 M MgSO4 and 0.1 ml of 1.0 M CaCl2 to make up to 1000 ml.
In the above, the E. coli used was double knockout E. coli, namely, EPSPS defective E. coli (E. coli DH5α with EPSPS gene and C-P Lyase gene being knocked out, named as EDCE, wherein for a preparation method thereof, reference can be made to a Chinese invention patent with the filing number CN2016103256926).
The glyphosate resistance of the soybean EPSPS mutant G4 provided in Example 3 and the soybean EPSPS mutant G5 provided in Example 4 was verified with reference to the detection method in Experiment Example 1.
The wild-type wheat EPSPS (with an amino acid sequence represented by SEQ ID NO: 14, and a corresponding encoding gene sequence represented by SEQ ID NO: 13) and the wheat EPSPS mutant T2 (with an amino acid sequence represented by SEQ ID NO: 18, and a corresponding encoding gene sequence represented by SEQ ID NO: 17) merely containing the mutation P118(101)S were taken as controls to verify the glyphosate resistance of the wheat EPSPS mutants T1 and T3 provided in Example 5 and Example 6, and reference can be made to Experiment Example 1 for the method.
A method for verifying the glyphosate resistance of the wheat EPSPS mutants T4, T5, and T6 provided in Examples 7-9 is the same as that in Experiment Example 3.
The wild-type rice EPSPS R0 (with an amino acid sequence represented by SEQ ID NO: 28, and a corresponding encoding gene sequence represented by SEQ ID NO: 27) and the rice EPSPS mutant R2 (with an amino acid sequence represented by SEQ ID NO: 32, and a corresponding encoding gene sequence represented by SEQ ID NO: 31) merely containing the mutation P116(101)S were taken as controls to verify the glyphosate resistance of the rice EPSPS mutants R1 and R3 provided in Examples 10 and 11, and reference can be made to Experiment Example 1 for the method. […]

[1] = culture media containing 0 mM glyphosate
[2] = culture media containing 1 mM glyphosate
[3] = culture media containing 5 mM glyphosate
[4] = culture media containing 10 mM glyphosate
[5] = culture media containing 20 mM glyphosate

B1: G0: wild-type soybean EPSPS, amino acid sequence SEQ ID NO: 2; control (protein)
chain: MAAAEKPSTAPEIVLEPIKDISGTITLPGSKSLSNRILLLAALSEGTTVVDNLLYSEDIHYMLGALRTLGLRVEDDQTTKQAIVEGCGGLFPTIKESKDEINLFLGNAGTAMRPLTAAVVAAGGNASYVLDGVPRMRERPIGDLVAGLKQLGADVDCFLGTNCPPVRVNGKGGLPGGKVKLSGSVSSQYLTALLMAAPLALGDVEIEIVDKLISVPYVEMTLKLMERFGVSVEHSGDWDKFLVHGGQKYKSPGNAFVEGDASSASYFLAGAAVTGGTITVNGCGTSSLQGDVKFAEVLEKMGAKVTWSENSVTVTGPPQDSSGQKVLQGIDVNMNKMPDVAMTLAVVALFANGQTTIRDVASWRVKETERMIAICTELRKLGATVEEGPDYCVITPPEKLNVTAIDTYDDHRMAMAFSLAACGDVPVTIKDPGCTRKTFPDYFEVLERFTRH
modifications: Glycine max
notes: control
growth of the E. coli transformed by the EPSPS [1]: could grow | growth of the E. coli transformed by the EPSPS [2]: substantially could not grow | growth of the E. coli transformed by the EPSPS [3]: substantially could not grow

B2: G1: soybean EPSPS mutant, SEQ ID NO: 4, mutation L212(195)P (protein)
chain: MAAAEKPSTAPEIVLEPIKDISGTITLPGSKSLSNRILLLAALSEGTTVVDNLLYSEDIHYMLGALRTLGLRVEDDQTTKQAIVEGCGGLFPTIKESKDEINLFLGNAGTAMRPLTAAVVAAGGNASYVLDGVPRMRERPIGDLVAGLKQLGADVDCFLGTNCPPVRVNGKGGLPGGKVKLSGSVSSQYLTALLMAAPLALGDVEIEIVDKPISVPYVEMTLKLMERFGVSVEHSGDWDKFLVHGGQKYKSPGNAFVEGDASSASYFLAGAAVTGGTITVNGCGTSSLQGDVKFAEVLEKMGAKVTWSENSVTVTGPPQDSSGQKVLQGIDVNMNKMPDVAMTLAVVALFANGQTTIRDVASWRVKETERMIAICTELRKLGATVEEGPDYCVITPPEKLNVTAIDTYDDHRMAMAFSLAACGDVPVTIKDPGCTRKTFPDYFEVLERFTRH
growth of the E. coli transformed by the EPSPS [1]: could grow | growth of the transformed E. coli compared with E. coli transformed by the control EPSPS named in the value [2]: obviously superior to that of the E. coli transformed by G0

B3: G2: soybean EPSPS mutant, SEQ ID NO: 6, merely containing the mutation P114(101)S; control (protein)
chain: MAAAEKPSTAPEIVLEPIKDISGTITLPGSKSLSNRILLLAALSEGTTVVDNLLYSEDIHYMLGALRTLGLRVEDDQTTKQAIVEGCGGLFPTIKESKDEINLFLGNAGTAMRSLTAAVVAAGGNASYVLDGVPRMRERPIGDLVAGLKQLGADVDCFLGTNCPPVRVNGKGGLPGGKVKLSGSVSSQYLTALLMAAPLALGDVEIEIVDKLISVPYVEMTLKLMERFGVSVEHSGDWDKFLVHGGQKYKSPGNAFVEGDASSASYFLAGAAVTGGTITVNGCGTSSLQGDVKFAEVLEKMGAKVTWSENSVTVTGPPQDSSGQKVLQGIDVNMNKMPDVAMTLAVVALFANGQTTIRDVASWRVKETERMIAICTELRKLGATVEEGPDYCVITPPEKLNVTAIDTYDDHRMAMAFSLAACGDVPVTIKDPGCTRKTFPDYFEVLERFTRH
growth of the E. coli transformed by the EPSPS [1]: could grow | growth of the E. coli transformed by the EPSPS [4]: could grow | growth of the E. coli transformed by the EPSPS [5]: could grow

B4: G3: soybean EPSPS mutant, SEQ ID NO: 8, mutations L212(195)P and P114(101)S (protein)
chain: MAAAEKPSTAPEIVLEPIKDISGTITLPGSKSLSNRILLLAALSEGTTVVDNLLYSEDIHYMLGALRTLGLRVEDDQTTKQAIVEGCGGLFPTIKESKDEINLFLGNAGTAMRSLTAAVVAAGGNASYVLDGVPRMRERPIGDLVAGLKQLGADVDCFLGTNCPPVRVNGKGGLPGGKVKLSGSVSSQYLTALLMAAPLALGDVEIEIVDKPISVPYVEMTLKLMERFGVSVEHSGDWDKFLVHGGQKYKSPGNAFVEGDASSASYFLAGAAVTGGTITVNGCGTSSLQGDVKFAEVLEKMGAKVTWSENSVTVTGPPQDSSGQKVLQGIDVNMNKMPDVAMTLAVVALFANGQTTIRDVASWRVKETERMIAICTELRKLGATVEEGPDYCVITPPEKLNVTAIDTYDDHRMAMAFSLAACGDVPVTIKDPGCTRKTFPDYFEVLERFTRH
growth of the E. coli transformed by the EPSPS [1]: could grow | growth of the E. coli transformed by the EPSPS [5]: could grow | growth of the transformed E. coli compared with E. coli transformed by the control EPSPS named in the value [5]: superior to that of the E. coli transformed by the soybean EPSPS mutant G2

B5: G4: soybean EPSPS mutant, SEQ ID NO: 10, mutation S265(247)G (protein)
chain: MAAAEKPSTAPEIVLEPIKDISGTITLPGSKSLSNRILLLAALSEGTTVVDNLLYSEDIHYMLGALRTLGLRVEDDQTTKQAIVEGCGGLFPTIKESKDEINLFLGNAGTAMRPLTAAVVAAGGNASYVLDGVPRMRERPIGDLVAGLKQLGADVDCFLGTNCPPVRVNGKGGLPGGKVKLSGSVSSQYLTALLMAAPLALGDVEIEIVDKLISVPYVEMTLKLMERFGVSVEHSGDWDKFLVHGGQKYKSPGNAFVEGDASSAGYFLAGAAVTGGTITVNGCGTSSLQGDVKFAEVLEKMGAKVTWSENSVTVTGPPQDSSGQKVLQGIDVNMNKMPDVAMTLAVVALFANGQTTIRDVASWRVKETERMIAICTELRKLGATVEEGPDYCVITPPEKLNVTAIDTYDDHRMAMAFSLAACGDVPVTIKDPGCTRKTFPDYFEVLERFTRH
growth of the E. coli transformed by the EPSPS [1]: could grow | growth of the transformed E. coli compared with E. coli transformed by the control EPSPS named in the value [3]: superior to that of the E. coli transformed by G0

B6: G5: soybean EPSPS mutant, SEQ ID NO: 12, mutations S265(247)G and P114(101)S (protein)
chain: MAAAEKPSTAPEIVLEPIKDISGTITLPGSKSLSNRILLLAALSEGTTVVDNLLYSEDIHYMLGALRTLGLRVEDDQTTKQAIVEGCGGLFPTIKESKDEINLFLGNAGTAMRSLTAAVVAAGGNASYVLDGVPRMRERPIGDLVAGLKQLGADVDCFLGTNCPPVRVNGKGGLPGGKVKLSGSVSSQYLTALLMAAPLALGDVEIEIVDKLISVPYVEMTLKLMERFGVSVEHSGDWDKFLVHGGQKYKSPGNAFVEGDASSAGYFLAGAAVTGGTITVNGCGTSSLQGDVKFAEVLEKMGAKVTWSENSVTVTGPPQDSSGQKVLQGIDVNMNKMPDVAMTLAVVALFANGQTTIRDVASWRVKETERMIAICTELRKLGATVEEGPDYCVITPPEKLNVTAIDTYDDHRMAMAFSLAACGDVPVTIKDPGCTRKTFPDYFEVLERFTRH
growth of the E. coli transformed by the EPSPS [1]: could grow | growth of the E. coli transformed by the EPSPS [4]: could grow | growth of the transformed E. coli compared with E. coli transformed by the control EPSPS named in the value [4]: obviously superior to that of the E. coli transformed by G2

B7: T0: wild-type wheat EPSPS, amino acid sequence SEQ ID NO: 14; control (protein, listed as Triticum aestivum)
chain: MATSVAAPAAPAGAEEVVLQPIREISGAVQLPGSKSLSNRILLLSALSEGTTVVDNLLNSEDVHYMLEALEALGLSVEADKVAKRAVVVGCGGRFPVEKDAKEEVKLFLGNAGTAMRPLTAAVVAAGGNATYVLDGVPRMRERPIGDLVVGLQQLGADVDCFLGTNCPPVRINGKGGLPGGKVKLSGSISSQYLSSLLMAAPLALEDVEIEIIDKLISVPYVEMTLKLMEHFGVTAEHSDSWDRFYIKGGQKYKSPGNAYVEGDASSASYFLAGAAITGGTVTVEGCGTTSLQGDVKFAEVLEMMGAKVTWTDTSVTVTGPPRQPFGRKHLKAVDVNMNKMPDVAMTLAVVALFADGPTAIRDVASWRVKETERMVAIRTELTKLGATVEEGPDYCIITPPEKLNITAIDTYDDHRMAMAFSLAACAEVPVTIRDPGCTRKTFPNYFDVLSTFVKN
growth of the E. coli transformed by the EPSPS [1]: could grow | growth of the E. coli transformed by the EPSPS [2]: substantially could not grow
